Measurements published in patent US20240252614A1 (Pfizer, published 2024).

How the values were obtained:
[1] = biological target: T1, PIV1 F literature prefusion comparison (PIV1); assay: BLI, 53C stress;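 also: binding of thermally stressed PIV1 F mutant supernatant to mAb on AHC biosensors for 5 min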
T1 construct: F113G, F114S, A466I, S473I (Stewart-Jones et al. 2018)
Description: (§1) The OCTET HTX (Sartorius, Gottingen, Germany) instrument was used to evaluate the expression and conformational integrity for each mutant. All measurements were conducted at 30° C. temperature in 96-well black plates (Corning, Corning, NY) with a final volume of 240 μL per well at a constant agitation rate of 1000 RPM.
(§2) Conformation integrity of PIV1 F protein mutants were evaluated by a thermal stress experiment. Crude cell culture supernatants were normalized based on the results of the titer quantitation and then incubated for 1 hour at room temperature and two higher temperatures. For the initial testing of PIV1 mutants, the two temperatures were 50° C. and 53° C. […] Anti-Human IgG Fc Capture (AHC) biosensors were first equilibrated in PB for before being dipped into more PB to establish the initial baseline. […] The mAb-bound biosensors were then dipped into the thermal stresses cell culture supernatants for 5 minutes.

[2] = biological target: T2, PIV1069 (PIV1); assay: BLI, 53C stress;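 also: binding of thermally stressed PIV1 F mutant supernatant to mAb on AHC biosensors for 5 min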
T2 construct: F113G, F114S, A466L, S473L, G134A
Description: as §1, §2

[3] = biological target: T3, PIV1070 (PIV1); assay: BLI, 53C stress;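 also: binding of thermally stressed PIV1 F mutant supernatant to mAb on AHC biosensors for 5 min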
T3 construct: F113G, F114S, A466I, S473I, G134A
Description: as §1, §2

[4] = biological target: T4, hMPV078 (hMPV A, UniProt Q6WB98 19-102); assay: BLI, 58C stress
T4 construct: T411C-Q434C, A140C-S149C
Description: as §1
(§3) Conformation integrity of hMPV A F protein mutants were evaluated by thermal stress experiments. Crude cell culture supernatants were normalized based on the results of the titer quantitation and then incubated for 1 hour at room temperature and two higher temperatures. […] Anti-Human IgG Fc Capture (AHC) biosensors were first equilibrated in PB before being dipped into more PB to establish the initial baseline. […] The mAb-bound biosensors were then dipped into the thermal stressed cell culture supernatants for 5 minutes. The kinetics analysis was done by OCTET data analysis software (version 12.0, Sartorius) based on curve fitting of the entire associate step.

[5] = biological target: T5, hMPV079 (hMPV A, UniProt Q6WB98 19-102); assay: BLI, 58C stress
T5 construct: T411C-Q434C, A140C-S149C, A459P
Description: as §1, §3

[6] = biological target: T6, hMPV081 (hMPV A, UniProt Q6WB98 19-102); assay: BLI, 58C stress
T6 construct: T411C-Q434C, A140C-S149C, T365I
Description: as §1, §3

[7] = biological target: T7, hMPV082 (hMPV A, UniProt Q6WB98 19-102); assay: BLI, 58C stress
T7 construct: T411C-Q434C, A140C-S149C, G239A
Description: as §1, §3

[8] = biological target: T8, hMPV083 (hMPV A, UniProt Q6WB98 19-102); assay: BLI, 58C stress
T8 construct: T411C-Q434C, A140C-S149C, A459P, G239A, T49I, T365I
Description: as §1, §3

[9] = biological target: T9, hMPV084 (hMPV A, UniProt Q6WB98 19-102); assay: BLI, 58C stress
T9 construct: T411C-Q434C, L141C-A161C
Description: as §1, §3

[10] = biological target: T10, hMPV085 (hMPV A, UniProt Q6WB98 19-102); assay: BLI, 58C stress
T10 construct: T411C-Q434C, L141C-A161C, A459P
Description: as §1, §3

[11] = biological target: T11, hMPV086 (hMPV A, UniProt Q6WB98 19-102); assay: BLI, 58C stress
T11 construct: T411C-Q434C, L141C-A161C, T49I; also called hMP0086
Description: as §1, §3

[12] = biological target: T12, hMPV087 (hMPV A, UniProt Q6WB98 19-102); assay: BLI, 58C stress
T12 construct: T411C-Q434C, L141C-A161C, T365I
Description: as §1, §3

[13] = biological target: T13, hMPV088 (hMPV A, UniProt Q6WB98 19-102); assay: BLI, 58C stress
T13 construct: T411C-Q434C, L141C-A161C, G239A
Description: as §1, §3

[14] = biological target: T14, hMPV090 (hMPV A, UniProt Q6WB98 19-102); assay: BLI, 58C stress
T14 construct: T411C-Q434C, L141C-A161C, A459P, G239A, T49I, S149T, T365I
Description: as §1, §3

[15] = biological target: T15, hMPV097 (hMPV A, UniProt Q6WB98 19-102); assay: BLI, 58C stress
T15 construct: T411C-Q434C, E146C-T160C, A459P, G239A, T49I, S149T, T365I
Description: as §1, §3

[16] = biological target: hMPV A F WT Control (hMPV A, UniProt Q6WB98 19-102); assay: BLI, 58C stress
Description: as §1, §3

[17] = biological target: T16, hMPV B F WT Control (hMPV B, UniProt Q6WB98 19-102); assay: BLI, 56C stress
Description: (§4) All measurements were conducted at 30° C. temperature in 96-well black plates (Corning, Corning, NY) with a final volume of 240 μL per well at a constant agitation rate of 1000 RPM.
(§5) Conformation integrity of hMPV B F protein mutants were evaluated by a thermal stress experiment. Crude cell culture supernatants were normalized based on the results of the titer quantitation and then incubated for 1 hour at room temperature and two higher temperatures. For the testing of hMPV B single mutants, the two temperatures were 53° C. and 56° C. After the incubation, the protein mutants were probed with prefusion specific monoclonal antibody hMPV-2 by OCTET HTX. Anti-Human IgG Fc Capture (AHC) biosensors were first equilibrated in PB before being dipped into more PB for to establish the initial baseline. Biosensors were incubated with hMPV-2 before being equilibrated in PB to establish the experimental baseline. The mAb-bound biosensors were then dipped into the thermal stresses cell culture supernatants for 5 minutes.

[18] = biological target: T17, hMPV117 (hMPV B, UniProt Q6WB98 19-102); assay: BLI, 56C stress
T17 construct: T150C-R156C, A459P
Description: as §4, §5

[19] = biological target: T18, hMPV119 (hMPV B, UniProt Q6WB98 19-102); assay: BLI, 56C stress
T18 construct: T49I, T150C-R156C, A459P
Description: as §4, §5

[20] = biological target: T19, hMPV121 (hMPV B, UniProt Q6WB98 19-102); assay: BLI, 56C stress
T19 construct: L141C-A161C, T411C-Q434C
Description: as §4, §5

[21] = biological target: T20, hMPV125 (hMPV B, UniProt Q6WB98 19-102); assay: BLI, 56C stress
T20 construct: L141C-A161C, G239A, T411C-Q434C
Description: as §4, §5

[22] = biological target: T21, hMPV144 (hMPV B, UniProt Q6WB98 19-102); assay: BLI, 56C stress
T21 construct: T49I, L141C-A161C, S149T, A459P
Description: as §4, §5

[23] = biological target: T16, hMPV B F WT Control; assay: BLI, 63C stress
Description: as §5

[24] = biological target: T18, hMPV119; assay: BLI, 63C stress
Description: as §5

[25] = biological target: T22, hMPV123 (hMPV B, UniProt Q6WB98 19-102); assay: BLI, 63C stress
T22 construct: A140C-S149C, G239A, T411C-Q434C
Description: as §5

[26] = biological target: T23, hMPV132 (hMPV B, UniProt Q6WB98 19-102); assay: BLI, 63C stress
T23 construct: L141C-A161C, S149T, G239A, T411C-Q434C, A459P
Description: as §5

[27] = biological target: T24, hMPV134 (hMPV B, UniProt Q6WB98 19-102); assay: BLI, 63C stress
T24 construct: T49I, L141C-A161C, S149T, G239A, T365I, T411C-Q434C, A459P
Description: as §5

[28] = biological target: T25, hMPV137 (hMPV B, UniProt Q6WB98 19-102); assay: BLI, 63C stress
T25 construct: T49I, A140C-S149C
Description: as §5

[29] = biological target: T26, hMPV139 (hMPV B, UniProt Q6WB98 19-102); assay: BLI, 63C stress
T26 construct: T49I, L141C-A161C, T411C-Q434C
Description: as §5

B1: PIV1-8 mAb (antibody, V domains shown)
VH: QVQLVQSGAEVKKPGSSVKVSCEASGGTFSNYVISWVRQAPGQGLEWMGGIIPVFATAKYAQKFQGRVTIIADQSTNTAYLELSSLRSDDTAVYFCASVDSGGTWWDAFAIWGQGTMVTVSS
VL: QAVVTQPRSVSGSPGQAVTISCTGTSSDVGGYNYVSWYQHHPGKAPKLIIYDVTKRPSGVPDRFSGSKSGNTASLTISGLQTEYEADYYCCSYAGSYTLVFGGGTKLTVLG
notes: human IgG1; also called hPIV1-8 mAb; hPIV1-8
Response Shift [1]: 0.717 nm
Response Shift [2]: 0.847 nm
Response Shift [3]: 0.84 nm

B2: hMPV-2 mAb (antibody, V domains shown)
VH: QVQLQQSGAEVKKPGASVKVSCKASGYTFTSYGISWVRQAPGQGLEWMGWISGYNGNTNYAQTFQGTFTMTTDTSTSTAYMELRRLRSGDTAVYYCARDRYYASGSYNGMDVWGQGTTVTVSS
VL: QSALTQPPSASGAPGQRVTVSCSGSSSNVGSSSVYWYQQLPGTAPKLLIYRNNQRPSGVPDRFSGSKSGTSASLAISGLRSEDEADYYCAAWDDSLSGWVFGGGTKLTVLG
notes: human IgG1
Response Shift [4]: 0.769 nm
Response Shift [5]: 0.736 nm
Response Shift [6]: 0.804 nm
Response Shift [7]: 0.804 nm
Response Shift [8]: 0.822 nm
Response Shift [9]: 0.183 nm
Response Shift [10]: 0.076 nm
Response Shift [11]: 0.735 nm
Response Shift [12]: 0.763 nm
Response Shift [13]: 0.492 nm
Response Shift [14]: 0.77 nm
Response Shift [15]: 0.905 nm
Response Shift [16]: 0.015 nm
Response Shift [17]: 0.122 nm
Response Shift [18]: 0.64 nm
Response Shift [19]: 0.828 nm
Response Shift [20]: 0.794 nm
Response Shift [21]: 0.785 nm
Response Shift [22]: 0.67 nm
Response Shift [23]: 0.017 nm
Response Shift [24]: 0.017 nm
Response Shift [25]: 0.549 nm
Response Shift [26]: 0.606 nm
Response Shift [27]: 0.733 nm
Response Shift [28]: 0.238 nm
Response Shift [29]: 0.456 nm
